Source: patent US20240043522A1

Tests used:
[1] = target: biotinylated human FcRn protein (human) (UniProt P55899); experiment: SPR (Biacore T200), biotinylated hFcRn captured on CAP chip, antibody as analyte
[2] = target: His-tagged recombinant human FcγRIIIa/CD16a (V158) (human) (UniProt P08637); experiment: SPR (Biacore T200), His-tagged FcγR captured by anti-His, antibody as analyte, 1:1 kinetic model
[3] = target: His-tagged recombinant human FcγRIIa/CD32a (R167) (human) (UniProt P12318); experiment: as above
[4] = target: His-tagged recombinant human FcγRIIb/c/CD32b/c (human) (UniProt P31994); experiment: as above
[5] = target: His-tagged recombinant mouse FcγR4/CD16-2 (mouse); experiment: as above
[6] = target: His-tagged recombinant human FcγRI/CD64 (human) (UniProt P12314); experiment: as above
His-tagged recombinant human FcγRI/CD64 (human), sequence (P12314 16-288 limits assumed): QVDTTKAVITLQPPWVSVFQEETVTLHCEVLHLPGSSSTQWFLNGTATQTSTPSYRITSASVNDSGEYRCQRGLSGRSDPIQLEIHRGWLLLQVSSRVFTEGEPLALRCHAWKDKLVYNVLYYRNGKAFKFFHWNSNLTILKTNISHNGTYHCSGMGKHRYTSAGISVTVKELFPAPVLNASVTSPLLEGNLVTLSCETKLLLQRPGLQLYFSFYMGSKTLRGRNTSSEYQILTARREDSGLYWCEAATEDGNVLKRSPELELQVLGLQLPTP

His-tagged recombinant human FcγRIIIa/CD16a (V158) (human), sequence (P08637 17-208 F176V limits assumed): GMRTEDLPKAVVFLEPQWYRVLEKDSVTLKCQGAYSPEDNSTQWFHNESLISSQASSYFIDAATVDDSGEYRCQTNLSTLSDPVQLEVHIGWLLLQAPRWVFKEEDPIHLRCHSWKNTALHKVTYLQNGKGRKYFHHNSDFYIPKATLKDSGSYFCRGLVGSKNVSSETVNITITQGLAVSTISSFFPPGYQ
biotinylated human FcRn protein (human), sequence (P55899 24-297 limits assumed, form in doubt, chain 1 of 2): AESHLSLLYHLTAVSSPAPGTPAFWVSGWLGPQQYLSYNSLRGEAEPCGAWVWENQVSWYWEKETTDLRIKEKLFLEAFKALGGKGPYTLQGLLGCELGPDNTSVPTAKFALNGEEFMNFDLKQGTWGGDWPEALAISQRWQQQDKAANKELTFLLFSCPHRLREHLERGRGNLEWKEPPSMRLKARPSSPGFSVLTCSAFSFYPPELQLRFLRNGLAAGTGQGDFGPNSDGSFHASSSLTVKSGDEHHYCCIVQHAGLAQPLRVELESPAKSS
biotinylated human FcRn protein (human), sequence (P61769 21-119 limits assumed, form in doubt, chain 2 of 2, further chain): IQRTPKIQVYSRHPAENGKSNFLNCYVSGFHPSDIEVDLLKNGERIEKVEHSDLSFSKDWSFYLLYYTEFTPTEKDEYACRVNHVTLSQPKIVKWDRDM
His-tagged recombinant human FcγRIIb/c/CD32b/c (human), sequence (P31994 46-217 limits assumed): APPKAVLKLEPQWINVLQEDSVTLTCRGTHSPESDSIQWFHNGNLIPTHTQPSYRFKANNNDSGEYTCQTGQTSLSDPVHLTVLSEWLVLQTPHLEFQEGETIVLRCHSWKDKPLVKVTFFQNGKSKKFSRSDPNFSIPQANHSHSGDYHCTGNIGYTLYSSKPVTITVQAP
His-tagged recombinant human FcγRIIa/CD32a (R167) (human), sequence (P12318 36-218 H167R limits assumed): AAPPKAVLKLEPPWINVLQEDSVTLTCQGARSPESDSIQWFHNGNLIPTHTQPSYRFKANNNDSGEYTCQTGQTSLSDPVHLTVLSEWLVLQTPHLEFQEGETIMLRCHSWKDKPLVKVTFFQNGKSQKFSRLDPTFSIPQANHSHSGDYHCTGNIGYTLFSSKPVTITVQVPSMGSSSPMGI

Substance | Kd [1] | Kd [2] | Kd [3] | Kd [4] | Kd [5] | Kd [6]
mab03 (adalimumab Fab, IgG2 Fc-backbone) (antibody) | 342 nM | > 10000 nM | > 5000 nM | > 10000 nM | > 10000 nM | 
mab01 (adalimumab, IgG1 wild-type) (antibody) | 361 nM | 656 nM | 3280 nM | > 10000 nM | 827 nM | 0.8 nM
mab05 (adalimumab Fab, IgG1 L234A/L235A P329A) (antibody) | 265 nM |  |  |  |  | > 10000 nM
mab02 (adalimumab Fab, IgG1 L234A/L235A N297A, aglycosylated) (antibody) | 263 nM |  |  |  |  | 
mab06 (adalimumab Fab, upside-down IgG1 Fc, no linker between CH1 and CH2) (antibody) | 528 nM |  |  |  |  | 
mab07 (adalimumab Fab, upside-down IgG1 Fc with 19GS-linker between CH1 and CH2) (antibody) | 348 nM |  |  |  |  | 
mab04 (adalimumab Fab, IgG1 E269R, K322A) (antibody) | 357 nM | > 10000 nM |  |  | > 5000 nM | 6.7 nM
